From patent US20220281959A1 (DIACCURATE, published 2022)
Ends that are not written are not given here.

B1: anti-PEP3 mAb 15B4 (antibody, V domains shown)
VH: QVQLQQSGPELVRPGTSVKISCKAPGYSFTSHWMQWLRQRPGQGLEWIGEIFPGSGKTYYNEKFKDKATLTADTSSTTVYMQFSSLTSEDSAVYFCASDYDGGDYWGQGTTLTVSS
VL: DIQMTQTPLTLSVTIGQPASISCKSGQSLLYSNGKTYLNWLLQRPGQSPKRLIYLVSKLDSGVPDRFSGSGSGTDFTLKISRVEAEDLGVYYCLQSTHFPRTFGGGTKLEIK
B2: anti-PEP3 mAb 5E12 (antibody, V domains shown)
VH: QIQLVQSGPELKKPGETVKISCKASGYTFRTYGMSWVKQAPGKGLKWMGWINTYSGVPRYVDDFKGRFALSLETSASTAYLQINNLKSEDTATYFCVREGYSYYGSSFHTMDYWGQGTSVTVSS
VL: DIQMTQTPLTLSVTIGHPASISCKSSQSLLHTNGKIYLNWLLQRPGQSPKRLIYLVSKLDSGVPDRFSGSGSGTDFTLKISRVEAEDLGVYYCLQSTHFPQTFGGGTKLEIK
B3: anti-PEP3 mAb 3A2 (antibody, V domains shown)
VH: QVQLQQPGAELVKPGASVKLSCKASGYIFTNYWMHWVRQRPGQGPEWIGMIHPNRGDLHYSEKFNNKATLTVDKSSSTAYMQLNSLASEDSAVYFCARAGLGVFDYWGQGSTLTVSS
VL: DVVMTQTPLSLPVSLGDQVSMSCRSSQSIEHSNRNTYLEWYLHKPGQAPQLLIYGVSNRFTGVPDRFSGSGSGTDFTLKISRVEAEDMGVYHCLQGTHVPFTFGSGTKLEIK
B4: anti-PEP3 gp41 mAb 4G1 (antibody, V domains shown)
VL: DVVMTQTPLSLCVSLGDQASISCRTSQSIVHSNRYTYLEWYLQKPGQPLKLLIYGIANRFSGVPDRFSGSGSGTDFTLKISRVEAEDMGVYYCLQGTHVPFTFGSGTKLEIK
V domain: QVQLQQPGAELVKPGASVKLSCKASGYIFRNYWMHWVKQRPGQGLEWIGMIHPNSDITHYNEKFKNRATLTVDKSSSTAYMQLNSLTSEDSAVYYCARGGLGVFDYWGQGTALRVSS
notes: Also used biotinylated (4G1-biot) as detection antibody; also called 4G1 anti-PEP3 mAb; 4G1 mAb
B5: anti-PEP3 mAb 8D5 (antibody, V domains shown)
VH: QVQLQQPGAELIEPGTSVKLSCKASGYTFTTYWMHWVKQRPGQGLEWIGMIHPNSGDTFYNENFKNKATLTVDISSSTVYMELSSLTSEDSAVYSCVKAGTGALDYWGQGTTLTVSS
VL: DVVMTQTPLSLPVSLGDQASISCRSSQSIVHSNRYTYLEWYLQRPGQSLKLLIYGVSNRFSGVPDRFSGSGSGTDFILKISRVEAEDMGVYYCFQGTHVPFTFGSGTKLEIK
B6: anti-PEP3 mAb 9B12 (antibody, V domains shown)
VH: QVQLQQSGPELVKPGASVKISCKASGYGFSDSWMNWVKQRPGKGLDWIGRIYPGDGDTDYNGKFKDKATLTADKSSTTAYMQLSSLTSEDSAVYFCAYLGHWGQGTLVTVSA
VL: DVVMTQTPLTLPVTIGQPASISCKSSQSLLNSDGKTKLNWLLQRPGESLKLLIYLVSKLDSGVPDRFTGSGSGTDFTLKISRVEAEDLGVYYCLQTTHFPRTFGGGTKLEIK

Columns and labels:
[1] = target: T1, BSA-PEP3 peptide (HIV-1 MN strain, also: conjugated to BSA); assay: ELISA, hybridoma supernatant pure, coated BSA-PEP3
T1 construct: The KLH immunogen carried an added N-terminal Cys
T1 peptide: PWNASWSNKSLDDIW

[2] = target: T1, BSA-PEP3 peptide; assay: ELISA, hybridoma supernatant 1/10, coated BSA-PEP3
[3] = target: T2, HXB2 gp41 recombinant protein (a.a. 534-681) (HIV-1 HXB2, UniProt P04578 534-681); assay: sandwich ELISA, mAb capture, gp41 titrated, biotinylated goat pAb detection
T2 construct: Bought; tags not described; also called ABIN1605865

[4] = target: T3, HIV-1 MN gp41 recombinant protein produced in E. coli (565-771Delta642-725) (HIV-1 MN); assay: ELISA, hybridoma supernatant 1/10, coated MN gp41
T3 construct: range 565-771; Residues 642-725 are deleted; also called MN gp41 (produced in E. coli); MN gp41 protein

[5] = target: T3, HIV-1 MN gp41 recombinant protein …; assay: ELISA, hybridoma supernatant pure, coated MN gp41
[6] = target: T2, HXB2 gp41 recombinant protein (a.a. …); assay: sandwich ELISA, 72D7 capture 10 µg/ml, HXB2 gp41 titrated, biotinylated 4G1 detection 20 µg/ml

Binder | ELISA screening signal [1] | ELISA screening signal [2] | minimal amount of gp41 detected [3] [ng/mL] | ELISA screening signal [4] | ELISA screening signal [5] | EC50 [6] [µg/mL]
B1 | 2.73 | 2.59 | > 10 | 1.45 | 1.81 | –
B2 | 3 | 3.21 | – | 2.71 | 2.61 | –
B3 | 2.93 | 3.06 | ~1 | 2.75 | 2.63 | –
B4 | – | – | ~1 | – | – | 0.34
B5 | 2.51 | 2.69 | ~1 | 2.55 | 2.58 | –
B6 | 2.79 | 2.78 | – | 0.047 | 0.054 | –
